According to article PMC8185552:

Target: murine tenascin-C (murine) (UniProt Q80YX1)
Experiment: negative staining transmission electron microscopy; murine TNC with CXCL12 labeled with colloidal gold; gold particles counted along the length of the TNC monomer, 500 TNC molecules

stoichiometry N: 6
Substance: murine tenascin-C, Q80YX1 23-2110
